Source: publication PMC6152936 (Cell reports, 2018)

Target: the molecule itself
Test: SAXS

B1: TFG N terminus (amino acids 1-138), wild type (domain or fragment, human, UniProt Q92734 1-138, looked up)
chain: MNGQLDLSGKLIIKAQLGEDIRRIPIHNEDITYDELVLMMQRVFRGKLLSNDEVTIKYKDEDGDLITIFDSSDLSFAIQCSRILKLTLFVNGQPRPLESSQVKYLRRELIELRNKVNRLLDSLEPPGEPGPSTNIPEN
- stoichiometry N: 8
